# Results from doi:10.1101/2021.10.18.464377.
# Values joined by “and” are separate entries in the source; they are usually repeats but may differ in a detail not shown here. Equal entries are not always repeated.
# Target: Synaptotagmin 2 K60A expressed in PC12 or HEK 293 cells (UniProt P29101)
# Test: immunostaining of cells or tissue
# Chain of UniProt P29101 (P29101 whole entry K60A): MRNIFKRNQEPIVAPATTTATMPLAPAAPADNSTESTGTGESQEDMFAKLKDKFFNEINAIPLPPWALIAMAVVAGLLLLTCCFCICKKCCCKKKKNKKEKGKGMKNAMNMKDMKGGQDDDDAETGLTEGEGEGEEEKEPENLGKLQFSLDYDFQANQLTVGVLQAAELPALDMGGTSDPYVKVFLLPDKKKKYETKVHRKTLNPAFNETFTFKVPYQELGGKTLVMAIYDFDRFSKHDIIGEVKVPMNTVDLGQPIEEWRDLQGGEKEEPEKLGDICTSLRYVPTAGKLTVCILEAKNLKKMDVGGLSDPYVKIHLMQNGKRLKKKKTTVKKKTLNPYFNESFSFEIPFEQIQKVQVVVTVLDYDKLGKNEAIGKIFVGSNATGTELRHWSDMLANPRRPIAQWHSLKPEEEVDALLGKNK
substance,measurement,value
Botulinum neurotoxin serotype B (B1 Okra strain) with non-toxic accessory proteins (complex),decrease of BoNT/B binding against SYT2-WT,64% and 69%
